Numbering of substitutions follows the chain as printed.
T1: DFNB31_1, Q9P202
T1 sequence (Q9P202 135-233, limits assumed, looked up): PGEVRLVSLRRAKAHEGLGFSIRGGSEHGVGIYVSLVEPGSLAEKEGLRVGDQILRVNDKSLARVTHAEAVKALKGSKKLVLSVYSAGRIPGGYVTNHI

T2: FRMPD1, Q5SYB0
T2 sequence (Q5SYB0 52-145, limits assumed, looked up): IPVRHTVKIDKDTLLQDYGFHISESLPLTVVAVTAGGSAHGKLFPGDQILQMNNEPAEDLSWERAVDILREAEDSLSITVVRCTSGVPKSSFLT

T3: LIN7A, O14910
T3 sequence (O14910 103-200, limits assumed, looked up): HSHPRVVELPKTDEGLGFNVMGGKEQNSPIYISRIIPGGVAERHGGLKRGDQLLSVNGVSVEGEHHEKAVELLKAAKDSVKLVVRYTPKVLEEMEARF

T4: LIN7B, Q9HAP6
T4 sequence (Q9HAP6 88-185, limits assumed, looked up): T3 sequence (O14910 103-200, limits assumed, looked up) with S2A, V20I, I35V, E42D, H65Q, K77Q, D78G, K89R

T5: LNX2_2, Q8N448
T5 sequence (Q8N448 334-432, limits assumed, looked up): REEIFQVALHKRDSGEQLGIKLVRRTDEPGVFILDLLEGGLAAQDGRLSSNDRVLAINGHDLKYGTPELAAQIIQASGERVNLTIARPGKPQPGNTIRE

T6: MPDZ_10, O75970
T6 sequence (O75970 1624-1722, limits assumed, looked up): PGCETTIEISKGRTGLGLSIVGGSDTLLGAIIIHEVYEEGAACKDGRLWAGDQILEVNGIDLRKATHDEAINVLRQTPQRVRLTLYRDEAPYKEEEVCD

T7: NHERF3_4, Q5T2W1
T7 sequence (Q5T2W1 373-468, limits assumed, looked up): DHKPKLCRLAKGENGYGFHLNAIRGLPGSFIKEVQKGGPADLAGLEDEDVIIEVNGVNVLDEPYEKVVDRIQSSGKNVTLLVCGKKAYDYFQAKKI

T8: PDZD7_3, Q9H5P4
T8 sequence (Q9H5P4 857-944, limits assumed, looked up): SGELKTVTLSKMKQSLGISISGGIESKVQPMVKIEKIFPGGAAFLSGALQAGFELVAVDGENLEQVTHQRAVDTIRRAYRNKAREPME

T9: PDZRN3_1, Q9UPQ7
T9 sequence (Q9UPQ7 244-349, limits assumed, looked up): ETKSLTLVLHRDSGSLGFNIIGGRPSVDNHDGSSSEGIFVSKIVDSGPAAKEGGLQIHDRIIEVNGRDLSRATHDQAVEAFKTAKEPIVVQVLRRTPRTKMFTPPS

T10: RAPGEF6, Q8TEU7
T10 sequence (Q8TEU7 525-625, limits assumed, looked up): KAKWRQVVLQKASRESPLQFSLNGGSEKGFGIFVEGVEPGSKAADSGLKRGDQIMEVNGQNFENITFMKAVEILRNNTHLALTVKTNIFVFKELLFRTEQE

T11: SIPA1L2, Q9P2F8
T11 sequence (Q9P2F8 945-1036, limits assumed, looked up): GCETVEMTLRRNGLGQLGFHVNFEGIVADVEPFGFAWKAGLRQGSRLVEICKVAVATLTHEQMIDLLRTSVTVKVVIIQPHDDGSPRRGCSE

T12: SYNJ2BP, P57105
T12 sequence (P57105 8-110, limits assumed, looked up): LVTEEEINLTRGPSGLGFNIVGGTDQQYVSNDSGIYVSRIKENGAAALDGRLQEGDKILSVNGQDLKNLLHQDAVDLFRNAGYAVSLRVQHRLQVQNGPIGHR

T13: TIAM2, Q8IVF5
T13 sequence (Q8IVF5 885-986, limits assumed, looked up): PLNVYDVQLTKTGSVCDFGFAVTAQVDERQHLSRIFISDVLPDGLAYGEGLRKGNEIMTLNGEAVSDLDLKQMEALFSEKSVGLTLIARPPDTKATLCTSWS

B1: SSTR5, P35346 (peptide)
chain: ANGLMQTSKL
B2: PTH2R, P49190 (peptide)
chain: GCQGETEDVL

Each binder was assayed against T1, DFNB31_1, Q9P202 (assay: holdup assay). Conditions: plain residues with an end cap or a label only (N-terminal biotin on a linker: ado-ado).
Parameters: key: below the threshold = too weak to quantify, mostly under pKd 3.1 to 4

Row | Binder | pKd
1 | B1 | 4.34
2 | B2 | below the threshold

These binders were tested against DLG1_2, Q12959 (assay: holdup assay). Conditions: plain residues with an end cap or a label only (N-terminal biotin on a linker: ado-ado).
DLG1_2, Q12959, sequence (Q12959 314-412): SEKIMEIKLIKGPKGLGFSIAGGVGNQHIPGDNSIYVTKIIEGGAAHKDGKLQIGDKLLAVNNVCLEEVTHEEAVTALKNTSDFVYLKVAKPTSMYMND
Parameters: key: below the threshold = too weak to quantify, mostly under pKd 3.1 to 4

Row | Binder | pKd
3 | B1 | below the threshold
4 | B2 | below the threshold

Each binder was assayed against DLG4_2, P78352 (assay: holdup assay). Conditions: plain residues with an end cap or a label only (N-terminal biotin on a linker: ado-ado).
DLG4_2, P78352, sequence (P78352 155-259): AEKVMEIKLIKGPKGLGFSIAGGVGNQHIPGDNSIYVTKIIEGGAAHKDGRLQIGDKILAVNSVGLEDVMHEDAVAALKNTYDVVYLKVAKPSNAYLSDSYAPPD
Parameters: key: below the threshold = too weak to quantify, mostly under pKd 3.1 to 4

Row | Binder | pKd
5 | B1 | below the threshold
6 | B2 | below the threshold

What follows are binders tested against T2, FRMPD1, Q5SYB0 (assay: holdup assay). Conditions: plain residues with an end cap or a label only (N-terminal biotin on a linker: ado-ado).
Parameters: key: below the threshold = too weak to quantify, mostly under pKd 3.1 to 4

Row | Binder | pKd
7 | B1 | below the threshold
8 | B2 | below the threshold

The binders below were run against FRMPD2_2, Q68DX3 (assay: holdup assay). Conditions: plain residues with an end cap or a label only (N-terminal biotin on a linker: ado-ado).
FRMPD2_2, Q68DX3, sequence (Q68DX3 944-1038): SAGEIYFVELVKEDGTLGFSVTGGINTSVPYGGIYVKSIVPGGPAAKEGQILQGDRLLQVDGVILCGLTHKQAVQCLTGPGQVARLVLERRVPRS
Parameters: key: below the threshold = too weak to quantify, mostly under pKd 3.1 to 4

Row | Binder | pKd
9 | B1 | below the threshold
10 | B2 | below the threshold

The binders below were run against FRMPD3, Q5JV73 (assay: holdup assay). Conditions: plain residues with an end cap or a label only (N-terminal biotin on a linker: ado-ado).
FRMPD3, Q5JV73, sequence (Q5JV73 12-100): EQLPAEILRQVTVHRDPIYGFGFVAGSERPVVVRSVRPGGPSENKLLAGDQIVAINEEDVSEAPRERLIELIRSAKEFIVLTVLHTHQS
Parameters: key: below the threshold = too weak to quantify, mostly under pKd 3.1 to 4

Row | Binder | pKd
11 | B1 | below the threshold
12 | B2 | below the threshold

What follows are binders tested against HTRA1, Q92743 (assay: holdup assay). Conditions: plain residues with an end cap or a label only (N-terminal biotin on a linker: ado-ado).
HTRA1, Q92743, sequence (Q92743 360-477): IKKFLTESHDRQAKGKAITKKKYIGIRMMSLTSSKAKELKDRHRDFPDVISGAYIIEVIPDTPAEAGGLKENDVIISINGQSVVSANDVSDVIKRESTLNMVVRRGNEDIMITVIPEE
Parameters: key: below the threshold = too weak to quantify, mostly under pKd 3.1 to 4

Row | Binder | pKd
13 | B1 | below the threshold
14 | B2 | 4.14

These binders were tested against Inadl_3, Q8NI35 (assay: holdup assay). Conditions: plain residues with an end cap or a label only (N-terminal biotin on a linker: ado-ado).
Inadl_3, Q8NI35, sequence (Q8NI35 359-469): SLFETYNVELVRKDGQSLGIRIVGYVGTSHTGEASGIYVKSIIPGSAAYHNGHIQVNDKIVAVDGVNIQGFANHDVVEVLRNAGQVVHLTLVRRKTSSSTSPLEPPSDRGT
Parameters: key: below the threshold = too weak to quantify, mostly under pKd 3.1 to 4

Row | Binder | pKd
15 | B1 | below the threshold
16 | B2 | 3.92

The binders below were run against T3, LIN7A, O14910 (assay: holdup assay). Conditions: plain residues with an end cap or a label only (N-terminal biotin on a linker: ado-ado).
Parameters: key: below the threshold = too weak to quantify, mostly under pKd 3.1 to 4

Row | Binder | pKd
17 | B1 | below the threshold
18 | B2 | below the threshold

What follows are binders tested against T4, LIN7B, Q9HAP6 (assay: holdup assay). Conditions: plain residues with an end cap or a label only (N-terminal biotin on a linker: ado-ado).
Parameters: key: below the threshold = too weak to quantify, mostly under pKd 3.1 to 4

Row | Binder | pKd
19 | B1 | 3.47
20 | B2 | below the threshold

These binders were tested against LNX1_2, Q8TBB1 (assay: holdup assay). Conditions: plain residues with an end cap or a label only (N-terminal biotin on a linker: ado-ado).
LNX1_2, Q8TBB1, sequence (Q8TBB1 371-470): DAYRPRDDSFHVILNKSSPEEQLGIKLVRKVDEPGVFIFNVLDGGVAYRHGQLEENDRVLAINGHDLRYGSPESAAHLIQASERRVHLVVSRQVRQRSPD
Parameters: key: below the threshold = too weak to quantify, mostly under pKd 3.1 to 4

Row | Binder | pKd
21 | B1 | below the threshold
22 | B2 | below the threshold

The binders below were run against T5, LNX2_2, Q8N448 (assay: holdup assay). Conditions: plain residues with an end cap or a label only (N-terminal biotin on a linker: ado-ado).
Parameters: key: below the threshold = too weak to quantify, mostly under pKd 3.1 to 4

Row | Binder | pKd
23 | B1 | below the threshold
24 | B2 | below the threshold

What follows are binders tested against MAST2, Q6P0Q8 (assay: holdup assay). Conditions: plain residues with an end cap or a label only (N-terminal biotin on a linker: ado-ado).
MAST2, Q6P0Q8, sequence (Q6P0Q8 1099-1202): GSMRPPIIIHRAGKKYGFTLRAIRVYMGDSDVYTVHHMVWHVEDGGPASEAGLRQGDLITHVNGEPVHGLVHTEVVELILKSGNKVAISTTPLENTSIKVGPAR
Parameters: key: below the threshold = too weak to quantify, mostly under pKd 3.1 to 4

Row | Binder | pKd
25 | B1 | 5.34
26 | B2 | 4.46

These binders were tested against T6, MPDZ_10, O75970 (assay: holdup assay). Conditions: plain residues with an end cap or a label only (N-terminal biotin on a linker: ado-ado).
Parameters: key: below the threshold = too weak to quantify, mostly under pKd 3.1 to 4

Row | Binder | pKd
27 | B1 | below the threshold
28 | B2 | below the threshold

Each binder was assayed against T7, NHERF3_4, Q5T2W1 (assay: holdup assay). Conditions: plain residues with an end cap or a label only (N-terminal biotin on a linker: ado-ado).
Parameters: key: below the threshold = too weak to quantify, mostly under pKd 3.1 to 4

Row | Binder | pKd
29 | B1 | 4.76
30 | B2 | below the threshold

These binders were tested against T8, PDZD7_3, Q9H5P4 (assay: holdup assay). Conditions: plain residues with an end cap or a label only (N-terminal biotin on a linker: ado-ado).
Parameters: key: below the threshold = too weak to quantify, mostly under pKd 3.1 to 4

Row | Binder | pKd
31 | B1 | 4.22
32 | B2 | below the threshold

What follows are binders tested against T9, PDZRN3_1, Q9UPQ7 (assay: holdup assay). Conditions: plain residues with an end cap or a label only (N-terminal biotin on a linker: ado-ado).
Parameters: key: below the threshold = too weak to quantify, mostly under pKd 3.1 to 4

Row | Binder | pKd
33 | B1 | below the threshold
34 | B2 | below the threshold

These binders were tested against PTPN3, P26045 (assay: holdup assay). Conditions: plain residues with an end cap or a label only (N-terminal biotin on a linker: ado-ado).
PTPN3, P26045, sequence (P26045 505-587): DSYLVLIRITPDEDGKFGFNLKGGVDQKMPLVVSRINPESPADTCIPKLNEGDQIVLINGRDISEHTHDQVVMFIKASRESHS
Parameters: key: below the threshold = too weak to quantify, mostly under pKd 3.1 to 4

Row | Binder | pKd
35 | B1 | 4.1
36 | B2 | 3.78

The binders below were run against T10, RAPGEF6, Q8TEU7 (assay: holdup assay). Conditions: plain residues with an end cap or a label only (N-terminal biotin on a linker: ado-ado).
Parameters: key: below the threshold = too weak to quantify, mostly under pKd 3.1 to 4

Row | Binder | pKd
37 | B1 | below the threshold
38 | B2 | below the threshold

These binders were tested against SCRIB_2, Q14160 (assay: holdup assay). Conditions: plain residues with an end cap or a label only (N-terminal biotin on a linker: ado-ado).
SCRIB_2, Q14160, sequence (Q14160 857-960): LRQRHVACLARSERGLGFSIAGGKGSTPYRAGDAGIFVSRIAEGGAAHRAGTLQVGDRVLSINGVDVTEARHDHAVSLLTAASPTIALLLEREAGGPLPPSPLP
Parameters: key: below the threshold = too weak to quantify, mostly under pKd 3.1 to 4

Row | Binder | pKd
39 | B1 | below the threshold
40 | B2 | below the threshold

Each binder was assayed against T11, SIPA1L2, Q9P2F8 (assay: holdup assay). Conditions: plain residues with an end cap or a label only (N-terminal biotin on a linker: ado-ado).
Parameters: key: below the threshold = too weak to quantify, mostly under pKd 3.1 to 4

Row | Binder | pKd
41 | B1 | below the threshold
42 | B2 | below the threshold

The binders below were run against SNX27, Q96L92 (assay: holdup assay). Conditions: plain residues with an end cap or a label only (N-terminal biotin on a linker: ado-ado).
Parameters: key: below the threshold = too weak to quantify, mostly under pKd 3.1 to 4

Row | Binder | pKd
43 | B1 | 5.52
44 | B2 | 4.52

Each binder was assayed against T12, SYNJ2BP, P57105 (assay: holdup assay). Conditions: plain residues with an end cap or a label only (N-terminal biotin on a linker: ado-ado).
Parameters: key: below the threshold = too weak to quantify, mostly under pKd 3.1 to 4

Row | Binder | pKd
45 | B1 | below the threshold
46 | B2 | below the threshold

What follows are binders tested against T13, TIAM2, Q8IVF5 (assay: holdup assay). Conditions: plain residues with an end cap or a label only (N-terminal biotin on a linker: ado-ado).
Parameters: key: below the threshold = too weak to quantify, mostly under pKd 3.1 to 4

Row | Binder | pKd
47 | B1 | 3.65
48 | B2 | below the threshold

From publication PMC9482650, “Quantitative fragmentomics allow affinity mapping of interactomes” (Nature Communications, 2022)
